These results are taken from paper PMC5836831, “Candidate SNP markers of reproductive potential are predicted by a significant change in the affinity of TATA-binding protein for human gene promoters”.

The target in data set [1] is T1, TATA-binding protein (TBP) (human, UniProt P20226 1-339). Description: EMSA. The settings on record: EMSA: 20 mM HEPES-KOH pH 7.6, 5 mM MgCl2, 70 mM KCl, 1 mM EDTA, 100 ug/ml BSA, 0.01% NP-40, 5% glycerol, 25 C, 0.3 nM TBP titrated with ODN; stopped-flow: …. (In general: In EMSA bound probe runs differently from free probe, usually more slowly.)
T1 sequence (P20226 whole entry): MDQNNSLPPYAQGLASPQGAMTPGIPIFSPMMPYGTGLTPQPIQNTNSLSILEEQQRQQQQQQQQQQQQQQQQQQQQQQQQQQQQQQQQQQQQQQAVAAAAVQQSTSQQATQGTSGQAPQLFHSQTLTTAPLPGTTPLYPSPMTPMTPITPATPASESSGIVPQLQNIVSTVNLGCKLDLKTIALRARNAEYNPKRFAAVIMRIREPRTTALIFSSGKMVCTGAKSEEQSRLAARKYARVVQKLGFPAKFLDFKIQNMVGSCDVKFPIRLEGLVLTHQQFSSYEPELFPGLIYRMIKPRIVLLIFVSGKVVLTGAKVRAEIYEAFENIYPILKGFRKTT
The target of data set [2] is T1, TATA-binding protein (TBP). Description: stopped-flow fluorescence (FRET); EMSA: 20 mM HEPES-KOH pH 7.6, 5 mM MgCl2, 70 mM KCl, 1 mM EDTA, 100 ug/ml BSA, 0.01% NP-40, 5% glycerol, 25 C, 0.3 nM TBP titrated with ODN; stopped-flow: 0.1 uM ODN, 0.1-1.0 uM TBP, buffer not stated. The settings on record: protein: recombinant; label: 5'-TAMRA and 5'-FAM; blunt.

For HBB promoter ODN, minor (rs33981098), the Kd (commonly the free concentration of one partner at which half of the binding sites on the other are occupied at equilibrium, for simple one-to-one binding) in data set [1] is 90 nM. “HBB promoter ODN, ancestral (rs33981098 a)”: in data set [1], the Kd was 44 nM.

B1: TPI1 promoter ODN, ancestral (rs1800202 t) (dsDNA)
DNA 1: CTCTATATAAGTGGG
DNA 2: CCCACTTATATAGAG
As for B1, in data set [2], the dissociation constant Kd turned out to be 1 nM.

B2: TPI1 promoter ODN, minor (rs1800202 g) (dsDNA)
DNA 1: CTCTATAGAAGTGGG
DNA 2: CCCACTTCTATAGAG
Consider B2, for which, in data set [2], the dissociation constant Kd was found to be 6 nM.
